The assay deals with Untagged murine saposin A (SapA) (mouse). The assay is described as follows: crystal structure; complex formed at pH 5.0 with the detergent LDAO, SapA:GALC molar ratio 2:1; crystals at 20 °C from 75 mM sodium citrate pH 5.6, 11% PEG 3350; 3.6 Å.

A word on the stoichiometry N: it is a count of units in the complex or per binding partner. For the substance “Untagged murine saposin A (SapA) (natural protein)”, the stoichiometry N stood at 2.

Source of the values: article PMC5764952 (2018).
